Target: the molecule itself
Assay: SEC + native gel or EMSA

B1: Bmp3, FAD-dependent prolyl-S-Bmp1(CP) oxidase (enzyme, Marinomonas mediterranea MMB-1)
chain: MNFEWTHEQAELFEHALRFGKELSAPLQEDNGFPRDNWNALGDFGYFGLPIPEKYAKDGSGFDILTTIKIIEGLGQSCTDTGLLFAGAAHTFACSMPILEHGSETLKHQLLPDLATGRKIAANAISEASAGSDISNLATTAQKEGDYYVLNGGKSYVTNGSIADYYVVYATTNKKHGYLGQTAFVVPRNTPGISVGNDYHKLGLRSAPLNQVFFDNCTIHKDYALGREGQGARIFAASMDWERCCLFAIFVGAMQRDLNQCIEYANTRMQGDKTISRFQAVSHRIADMGVRLESARLMLYYAAWQKSQDVDNTKAVAMSKLAISEAFVQSGIDSIRVHGALGYLDEGRVNNSIKDALGSVLFSGTSDIQRELICNRLGLL
stoichiometry N: 4

— PMC6500386 (Biochemistry, 2019)
